Data reported in patent US10077433B2, “Permuted and nonpermuted luciferase biosensors” (PROMEGA CORPORATION, priority 2006, dated 2018).
Each block holds one molecule with its values, some of them ahead of it.

Assay: Nonpermuted Oplophorus luciferase/RIIβB insertion constructs, luminescence with or without exogenous cAMP
Format: biochemical
Details: for luminescence, + exogenous cAMP: addition of exogenous cAMP to 50 μM final concentration; for luminescence, − no exogenous cAMP: no exogenous cAMP was added
Method: Protein was expressed from these constructs using the TnT T7 Coupled Reticulocyte Lysate System. Following expression, 9 μL of TNT reaction was mixed with 1 μL 1 mM cAMP stock or H2O, and the reactions were allowed to incubate at room temperature for approximately 15 minutes. Following incubation, 10 μL of 2× buffer (300 mM HEPES, pH=8.0, 200 mM thiourea) was added to each reaction, and luminescence was measured from the resulting 20 μL of solution following addition of 100 μL of Renilla Assay Reagent using a Turner 20/20N luminometer (1 second integration time).

luminescence, + exogenous cAMP: 10,369 | luminescence, − no exogenous cAMP: 6,387
B1: pBFB400: Met-(OpLuc 1-84)-GSTG-R2betaB-GSSG-(OpLuc 85-169) (protein)
chain: MFTLADFVGDWQQTAGYNQDQVLEQGGLSSLFQALGVSVTPIQKVVLSGENGLKADIHVIIPYEGLSGFQMGLIEMIFKVVYPVDGSTGMYESFIESLPFLKSLEFSERLKVVDVIGTKVYNDGEQIIAQGDSADSFFIVESGEVKITMKRKGKSEVEENGAVEIARCSRGQYFGELALVTNKPRAASAHAIGTVKCLAMDVQAFERLLGPCMEIMKRNIATYEEQLVALFGTNMDIVGSSGDHHFKIILHYGTLVIDGVTPNMIDYFGRPYPGIAVFDGKQITVTGTLWNGNKIYDERLINPDGSLLFRVTINGVTGWRLCENILA

luminescence, + exogenous cAMP: 62,264 | luminescence, − no exogenous cAMP: 8,568
B2: pBFB402: OpLuc 1-84 / R2betaB / OpLuc 85-169, 20 aa linkers (SEQ ID NO: 195) (protein)
chain: MFTLADFVGDWQQTAGYNQDQVLEQGGLSSLFQALGVSVTPIQKVVLSGENGLKADIHVIIPYEGLSGFQMGLIEMIFKVVYPVDGSSGGSGGSGGGSGGSGGSGMYESFIESLPFLKSLEFSERLKVVDVIGTKVYNDGEQIIAQGDSADSFFIVESGEVKITMKRKGKSEVEENGAVEIARCSRGQYFGELALVTNKPRAASAHAIGTVKCLAMDVQAFERLLGPCMEIMKRNIATYEEQLVALFGTNMDIVGSGGSGGSGGTSGGSGGSSGDHHFKIILHYGTLVIDGVTPNMIDYFGRPYPGIAVFDGKQITVTGTLWNGNKIYDERLINPDGSLLFRVTINGVTGWRLCENILA

luminescence, + exogenous cAMP: 6,124 | luminescence, − no exogenous cAMP: 2,304
B3: pBFB401: Met-(OpLuc 1-84)-GSSGGSGGSG-R2betaB-GSSGGSGGSG-(OpLuc 85-169) (protein)
chain: MFTLADFVGDWQQTAGYNQDQVLEQGGLSSLFQALGVSVTPIQKVVLSGENGLKADIHVIIPYEGLSGFQMGLIEMIFKVVYPVDGSSGGSGGSGMYESFIESLPFLKSLEFSERLKVVDVIGTKVYNDGEQIIAQGDSADSFFIVESGEVKITMKRKGKSEVEENGAVEIARCSRGQYFGELALVTNKPRAASAHAIGTVKCLAMDVQAFERLLGPCMEIMKRNIATYEEQLVALFGTNMDIVGSSGGSGGSGDHHFKIILHYGTLVIDGVTPNMIDYFGRPYPGIAVFDGKQITVTGTLWNGNKIYDERLINPDGSLLFRVTINGVTGWRLCENILA

luminescence, + exogenous cAMP: 38,051 | luminescence, − no exogenous cAMP: 356
B4: pBFB399: OpLuc 1-50 / R2betaB / OpLuc 51-169, 20 aa linkers (SEQ ID NO: 192) (protein)
chain: MFTLADFVGDWQQTAGYNQDQVLEQGGLSSLFQALGVSVTPIQKVVLSGENGSSGGSGGSGGGSGGSGGSGMYESFIESLPFLKSLEFSERLKVVDVIGTKVYNDGEQIIAQGDSADSFFIVESGEVKITMKRKGKSEVEENGAVEIARCSRGQYFGELALVTNKPRAASAHAIGTVKCLAMDVQAFERLLGPCMEIMKRNIATYEEQLVALFGTNMDIVGSGGSGGSGGTSGGSGGSSGGLKADIHVIIPYEGLSGFQMGLIEMIFKVVYPVDDHHFKIILHYGTLVIDGVTPNMIDYFGRPYPGIAVFDGKQITVTGTLWNGNKIYDERLINPDGSLLFRVTINGVTGWRLCENILA

luminescence, + exogenous cAMP: 4,917 | luminescence, − no exogenous cAMP: 291
B5: pBFB398: Met-(OpLuc 1-50)-GSSGGSGGSG-R2betaB-GSSGGSGGSG-(OpLuc 51-169) (protein)
chain: MFTLADFVGDWQQTAGYNQDQVLEQGGLSSLFQALGVSVTPIQKVVLSGENGSSGGSGGSGMYESFIESLPFLKSLEFSERLKVVDVIGTKVYNDGEQIIAQGDSADSFFIVESGEVKITMKRKGKSEVEENGAVEIARCSRGQYFGELALVTNKPRAASAHAIGTVKCLAMDVQAFERLLGPCMEIMKRNIATYEEQLVALFGTNMDIVGSSGGSGGSGGLKADIHVIIPYEGLSGFQMGLIEMIFKVVYPVDDHHFKIILHYGTLVIDGVTPNMIDYFGRPYPGIAVFDGKQITVTGTLWNGNKIYDERLINPDGSLLFRVTINGVTGWRLCENILA
